From PMC8247761, “BZR1 Regulates Brassinosteroid-Mediated Activation of AMT1;2 in Rice” come the findings set out here.

For series [1], the target named is T1, His:BZR1 (Oryza sativa (rice), UniProt Q7XI96 1-298).
T1 sequence: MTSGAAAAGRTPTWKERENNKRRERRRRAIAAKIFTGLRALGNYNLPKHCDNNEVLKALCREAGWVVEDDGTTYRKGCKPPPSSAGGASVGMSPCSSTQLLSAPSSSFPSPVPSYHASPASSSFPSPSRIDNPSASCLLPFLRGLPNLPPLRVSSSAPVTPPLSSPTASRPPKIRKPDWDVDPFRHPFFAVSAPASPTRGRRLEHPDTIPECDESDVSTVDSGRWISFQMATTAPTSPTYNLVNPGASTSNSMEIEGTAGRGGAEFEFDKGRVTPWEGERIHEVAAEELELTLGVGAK
As to the kind of experiment: EMSA; slightly weaker than probe B; EMSA: 1 ug His:BZR1, 40k cpm 32P-labeled probe; buffer, salt, pH and temperature not given (protocol of Je et al., 2010). The settings on record: protein: recombinant; tags: His (pET28a(+)); chain copies: 2; label: 32P; blunt.

The target in series [2] is T1, His:BZR1. Briefly: EMSA; stronger than probe A; EMSA: 1 ug His:BZR1, 40k cpm 32P-labeled probe; buffer, salt, pH and temperature not given (protocol of Je et al., 2010). The settings on record: protein: recombinant; tags: His (pET28a(+)); chain copies: 2; label: 32P; blunt.

B1: probe A (BRRE A, AMT1;2 promoter P4) (dsDNA)
DNA 1: GTCTCACCGGGCTGCGTGCGTACGCCGATA
DNA 2: TATCGGCGTACGCACGCAGCCCGGTGAGAC
As for B1, in the series with His:BZR1 [1], the binding result is recorded as “binds”.

B2: probe B (BRRE B, AMT1;2 promoter P4) (dsDNA)
DNA 1: TGGTCGCATCGTCGTGCGTGAGCTGCCTATCG
DNA 2: CGATAGGCAGCTCACGCACGACGATGCGACCA
Regarding B2, the binding result with His:BZR1 [2] is “binds”.
